assay: soluble on expression in E. coli; label from the status in PepcDB or PDB records

Soluble on expression in E. coli, not soluble:
MKAYWIAHVDVTDPQQYSEYTQRAPAAFQLFGGKFLARGGRSEAIEGRATPQRTVIIEFESYEQAVACYHSPQYQNAMSHRQGAAKAEIVIVEGQP, MKCIESLGKTVDEAVKKALSELKVTEDKVEIKVIDEGSKGLLNIIGKREAKVKVTLKTDYIDEVRTFLRKVFEDMNLVIEIKIKEIGNDLFVNLFGKNIGLLIGYRGETLDSLQYLVNLVANKNHADGKYKRVILDTENYRAKREETLKRLALKISKRVKEEKSPFKLEPMNPYERRVIHSALQNDKYVRTYSEGEEPHRRVVVELKKS, MKCYFRSFDAGIGDCNIIRLVKNEGEQYVIMVDCGSYTEPLKEYLQNALHNHIDLLIATHIDGDHIQGIATMLKKHEGLTVGEIWYNCYKRTKGAEYIELNDQQKAILKQIQKALPVEFDAINYREITATQGKTLAQTILCNEKFKGVWKTEYITSNTEDFDIPGGFGKIVFLAPRQEALKAIENKFKEAFDKYFMQAWNESIENVEELQELLIRLVDAYQDKFGGKQISAKNKPVYNVAFVRKQAKEEGADDSDTNCSSIAFMLECGEHRIAMLGDAFADIIEETIDNKYKDQAKPMECDAIKVSHHGSNGNSSKTLLDRINSHIYFIPGGKGEKYPAWGTFGRIAEKHKDDQAKLIVFSRQCTITEKMNGLNEEVKRELGVETIITEQEYELFEW, MKDTVMMKLNTKESMAQIDGQTIYFKQIGEGKPPLLMLHGFGGSSDGFSDIYPELARDHTIIAVDILGFGRSSKPVDFQYSFPAQVNLYYKLMKKLGYNQFAVLGHSMGGEMSLNLAYLYPDAVTHLILADATGIESFQQKESYEVPPLSTDLQTVTEITKYNKNEVKNSRDDKEHYDQLTKMRERRIAMEADKIKVPTLIIWGRHDKSVSWKNGELYHGLFANSTFHIIEKGYHAPFRQEPIEFMEYVQAFFAKHPQ, MKDVAKLLKILPPTFNETVLLPVQTQLKEHYPRTVSLVKNLVSPLPEEYRFLTEVLLSVLLSGEISETIPYQALLVAHGESTATSIQAVANKLCGTYIFDAINMPLTSSVRDIVAEVKEWLSQRDTSQGVIMLVDMGSLTQLYKSLKPQILGELLVINNLTTAYALEIGHQLMNEQLFYGIAKTAEKKFKTDVQYFEGFSVEKNIIVSSISGLDIAKQIKQICQKYLYTDIKVITLKYKDLVNTLDIANAEENYLKETSLILTTSYLDNHTNVASVNLLDMLDEDAGTQLMEPFQNLMHPNNIDSMINEFVHFFSKEGLSEKLEFLNPDVIIKQVENVTKNIEKRFDLTLSGKMKFNLMMHNALMVERTMLGVEDYEIPANLEELTINQKPFFQNAKNIFYTLEQFYRIEISNWELYVIYEILSSR, MKEILDHYGSLLSRIDDWFRACLDSSGDRIRCADGCSDCCRGLFDITLLDAAFLRRGFDRLDPEVREQVLVRCRERIAILRLVWPEFDQPFILNMRPDDEWEALMPDDDETPCPLLDRHGRCLVYEHRPMTCRLHGLPLVDVSGEIMHDEWCTLNCIDADPLADPALRGDFDRIFTEEVRLIRTFAGRLLGHPLSEVDTFIPTALVIAFDSINWLSWGNRLAALSLSDPRSKLEHHHHHH, MKETIIVVHERPDIYDPVFIEGLPGIGLVGKLAAEHLIQELKAKKFAELYSPHFMHQVLIRKGSIVELMKNEFYYWKSPDDEHRDLIIVTGDTQVPPTDSYGHFEVAGKMLDFVQEFGTREIITMGGYQVPELQGEPRVLAAVTHPDLISYYQEKLKDCKVNVMWREDEGGAIVGAAGLLLGIGKLRGMFGISLLGESLGYIVDAKAAKAVLTAVAKILGLEIDMTALEERAKETEEILRKVEEMQRTIMEQQLPRPTHEEEDRGYL, MKFEGIYTPAITPLSADGSIDTQAFAEVLEFLVESKVHGIVIGGSTGEYYAHTAEERLALAAHASEVIAGRLPLVVGTGAIRTEDSLAYAEAARAIGADAILVGSPPYALPTSREIAEHVLAVDRAAGLPIMLYNYPARMGVEMDEAFFAAVAGCRNIVAIKESSGSTAQLHRLACRHPRIALSCGWDDQALEFFAWGARSWVCAGSNFIPGEHLALYQACVVENDFAKGRRIMAAMMPLMDFLESGHFVQSIKHGCELAGLRAGGVRAPLKALDEAGKAALAEIVARLKGEVAR, MKFGPIAIEEAEGAVLAHSTTAGEKRFRKAHRLSAEDISVLKRAGIVQVVAAVLSPDDLGEDAAAQRIAESMRFSGIEARPAATGRVNLHAKASGIFTVDAAMIDAINAVDPAITLATLAQHAPVEKGQMVATVKIIPFAVASTLVDTVVKICAGGEILAVNAYQPVRVGVIQTVLPGIKPSVLDKTLRVTEARLARSGGRLTAERRTPHEIAPVAEAAASLARDNDLVVIFGASAMSDFADVVPAAIERAGGTVVRAGMPVDPGNLLVLGTLGGKRIIGAPGCARSPKENGFDWVLDRLVAGLDVTAKDIAGMGVGGLLMEIPTRPQPREPLPAKSRLKVGIVLLAAGRSSRMGGPNKLLALFDGKPLVRRTAERALGSKASGTIVVTGHQRERVRAALSGLDVTFADNPDFANGLSTSLKAGIAYLPEDTAGAMIVLGDMPGVVSGDLDRLIDAFRKAGGNSVVRASHQGKRGNPVLLPRALFPAIAHLEGDTGARHLVEAEGLDVVDVEIGEGASVDVDTREALEGAGGVLQDLEHHHHHH, MKFINIVGTTASGKTTFARQLALKLNLTHIEMDDLFWLDGWQETPDDEFFLKLKNKMDIAKDGWVLDGNYSRTLHLKLDKLDTMIWLDYSFTLNFYRSVKRAISRIITKEPLWENSNNYESFKQSFLSKNSIILWMINHYAKNRKKYLNMMHDPQYRHIQFIRLTSPKQAKVFLDSL, MKFYNREKELNYLKTYCQLDPNSILFVYGPKSSGKSTVMRRVIKELEDSNIVFFYYNLRKYATYSKEEFLRVFFEKSEKKYLLNKLELNLGVFKFGVEENFDFNNLKLNDVFAKINESINAVVEDGKKPVLIIDELQKLKNIYFNGGKSLLNELFNLFVSLTKMEHLCHVICLTSDTLFIEEIYQSSTLENTSKYYLIDWLRKGTIRNILKEEGFSEEEINYCLDYLSLPYEIVDLIENKKLGLSVEETIRQWINIEKDKIKYLIDTTDLDEEELYKVLSKFKDKIKISYEKEVKKEEMKYFKFLIKNEILFYDVINGIIKPTSVKKWYAIREILK, MKGTQMLALNKKCWDIVAPYFFQVDCLPKYGPYTASEDEIHLFDSIKGKKVLDIGCGSGHSLQYMAEHGAEELWGLDLSSTQIETAHETLQSWNPKLICGAMEEERDIPKGYFDIVYSIYALGWTSDLRKTLELIYSYVKPGGSFIFSWEHPVYSNLMYGTEEIAFSSSYHEETPITFETFKGEDVQATLYKRKMSTYINELNRVGFTIERIEEPLEHHHHHH, MKGVSRHVFVRIVQAIIMKHLVYCFKLDNDEFNLKNKYKKYKPCVTRVYDDLNTIYRYISNNKIINLEHHHHHH

Soluble on expression in E. coli, soluble:
MKDLLTRRFVLNSKEVREGDVFVAVKGKRFDGHDFIDEALRNGAYAIIAERKTVNSDRIFLVESSVDTLAKLAREKLGNFSGTVVGVTGSSGKTTTKEILYNLLKNKRSVFKTPGNMNTEYGLPLSILNDYKGEEILVLEMAASRPGDIAHLCKIAPPDVAVLLNVGSAHLEFFGTRERIMETKMEIIKHSKENAIAVTLFDDPDLRKEVPRYRNTLFFGKEGGDSVLKDWWYYEGSTIAEFEAFDSLFTVKLSGYWNGGQLLNIAASLCVMRTLGETVDIFDLASLKTVPGRFNVREKKGVLIVDDTYNASPEAFQTSIEALLRFPGKKFAVVGAMKELGERSKEFHEELGERLNVLDGVYVFLSEPEAEWIKSKKIILKSDDPEKIAKDLATRVKKGDVVLFKASRAVRIERVLEMFEKELEKR, MKDPLLNSLIYVSRYYGLANSPEALVNGLPLSDGKLTPFLLPRAAERAGLVAKENRAELEKISSLILPAILVLKGGDSCVLNSINMETREAEVTTLESGMVPISIPLEDLLEQYTGRYFLVKKQFR, MKDRFELVSKYQPQGDQPKAIEKLVKGIQEGKKHQTLLGATGTGKTFTVSNLIKEVNKPTLVIAHNKTLAGQLYSEFKEFFPNNAVEYFVSYYDYYQPEAYVPQTDTFIEKDASINDEIDKLRHSATSALFERRDVIIIASVSCIYGLGSPEEYREMVVSLRTEMEIERNELLRKLVDIQYARNDIDFQRGTFRVRGDVVEIFPASRDEHCVRVEFFGDEIERIREVDALTGEILGDRDHVAIFPASHFVTRAEKMEKAIQNIEKELEEQLKVMHENGKLLEAQRLEQRTRYDLEMMREMGFCSGIENYSRHLTLRPPGSTPYTLLDYFPDDFMIVVDESHVTIPQVRGMFNGDQARKQVLVDHGFRLPSALDNRPLRFEEFEKHMHNIVYVSATPGPYEIEHTDEMVEQIIRPTGLLDPLIDVRPIEGQIDDLIGEIQARIERNERVLVTTLTKKMSEDLTDYLKEIGIKVNYLHSEIKTLERIEIIRDLRLGKYDVLVGINLLREGLDIPEVSLVAILDADKEGFLRSERSLIQTIGRAARNAEGRVIMYADKITKSMEIAINETKRRREQQERFNEEHGITPKTINKEIRDVIRATVAAEDKAEYKTKAAPKLSKMTKKERQKVVEQMEHEMKEAAKALDFERAAELRDLLLELKAEG, MKDVVIVGALRTPIGCFRGALAGHSAVELGSLVVKALIERTGVPAYAVDEVILGQVLTAGAGQNPARQSAIKGGLPNSVSAITINDVCGSGLKALHLATQAIQCGEADIVIAGGQENMSRAPHVLTDSRTGAQLGNSQLVDSLVHDGLWDAFNDYHIGVTAENLAREYGISRQLQDAYALSSQQKARAAIDAGRFKDEIVPVMTQSNGQTLVVDTDEQPRTDASAEGLARLNPSFDSLGSVTAGNASSINDGAAAVMMMSEAKARALNLPVLARIRAFASVGVDPALMGIAPVYATRRCLERVGWQLAEVDLIEANEAFAAQALSVGKMLEWDERRVNVNGGAIALGHPIGASGCRILVSLVHEMVKRNARKGLATLCIGGGQGVALTIERDE, MKEFVHDYLAASVENEEEGGRMRWYPWHSAEYRFNHILNVVDIATKIARKEGANVDVTRVAALFHDIAKLEAEQDLHAEAGARIAREYLRAHGDYPESFIEQVCSAVEVHSYQGSLDDLPLEVQCLIEADILDKVGANGTALMLLRMGYESRTHMDAAEMVDRVIERGEDARERVQSDTAESLVHQRLKRTRWFQEWLTMEVAEMAVEDDLDDVATGMGDSLEHHHHHH, MKFAVSSKGDQVSDTLKSKIQAYLLDFDMELDENEPEIVISVGGDGTLLYAFHRYSDRLDKTAFVGVHTGHLGFYADWVPHEIEKLVLAIAKTPYHTVEYPLLEVIVTYHENEREERYLALNECTIKSIEGSLVADVEIKGQLFETFRGDGLCLSTPSGSTAYNKALGGAIIHPSIRAIQLAEMASINNRVFRTVGSPLLLPSHHDCMIKPRNEVDFQVTIDHLTLLHKDVKSIRCQVASEKVRFARFRPFPFWKRVQDSFIGKGELEHHHHHH, MKGYQSLVFNFFFLKLSAENESTPIQQLLEHFLRQLQRKDPHGFFAFPVTDAIAPGYSMIIKHPMDFGTMKDKIVANEYKSVTEFKADFKLMCDNAMTYNRPDTVYYKLAKKILHAGFKMMSKERLLALKRSMSFMQDMDFSQQAALLGNEDTAVEEPVPEVVPVQVETAKKSKKPSREVISCMFEPEGNACSLTDSTAEEHVLALVEHAADEARDRINRFLPGGKMGYLKRNGDGSLLYSVVNTAEPDADEEETHPVDLSSLSSKLLPGFTTLGFKDERRNKVTFLSSATTALSMQNNSVFGDLKSDEMELLYSAYGDETGVQCALSLQEFVKDAGSYSKKVVDDLLDQITGGDHSRTLFQLKQRRNVPMKPPDEAKVGDTLGDSSSSVLEFMSMKSYPDVSVDISMLSSLGKVKKELDPDDSHLNLDETTKLLQDLHEAQAERGGSRPSSNLSSLSNASERDQHHLGSPSRLSVGEQPDVTHDPYEFLQSPEPAASAKT
